According to IntAct's records for PubMed 26859459:

B1: Mitogen-activated protein kinase kinase kinase 21 (Homo sapiens), Q5TCX8 (parent)
chain: MALRGAAGATDTPVSSAGGAPGGSASSSSTSSGGSASAGAGLWAALYDYEARGEDELSLRRGQLVEVLSQDAAVSGDEGWWAGQVQRRLGIFPANYVAPCRPAASPAPPPSRPSSPVHVAFERLELKELIGAGGFGQVYRATWQGQEVAVKAARQDPEQDAAAAAESVRREARLFAMLRHPNIIELRGVCLQQPHLCLVLEFARGGALNRALAAANAAPDPRAPGPRRARRIPPHVLVNWAVQIARGMLYLHEEAFVPILHRDLKSSNILLLEKIEHDDICNKTLKITDFGLAREWHRTTKMSTAGTYAWMAPEVIKSSLFSKGSDIWSYGVLLWELLTGEVPYRGIDGLAVAYGVAVNKLTLPIPSTCPEPFAKLMKECWQQDPHIRPSFALILEQLTAIEGAVMTEMPQESFHSMQDDWKLEIQQMFDELRTKEKELRSREEELTRAALQQKSQEELLKRREQQLAEREIDVLERELNILIFQLNQEKPKVKKRKGKFKRSRLKLKDGHRISLPSDFQHKITVQASPNLDKRRSLNSSSSSPPSSPTMMPRLRAIQLTSDESNKTWGRNTVFRQEEFEDVKRNFKKKGCTWGPNSIQMKDRTDCKERIRPLSDGNSPWSTILIKNQKTMPLASLFVDQPGSCEEPKLSPDGLEHRKPKQIKLPSQAYIDLPLGKDAQRENPAEAESWEEAASANAATVSIEMTPTNSLSRSPQRKKTESALYGCTVLLASVALGLDLRELHKAQAAEEPLPKEEKKKREGIFQRASKSRRSASPPTSLPSTCGEASSPPSLPLSSALGILSTPSFSTKCLLQMDSEDPLVDSAPVTCDSEMLTPDFCPTAPGSGREPALMPRLDTDCSVSRNLPSSFLQQTCGNVPYCASSKHRPSHHRRTMSDGNPTPTGATIISATGASALPLCPSPAPHSHLPREVSPKKHSTVHIVPQRRPASLRSRSDLPQAYPQTAVSQLAQTACVVGRPGPHPTQFLAAKERTKSHVPSLLDADVEGQSRDYTVPLCRMRSKTSRPSIYELEKEFLS
partner: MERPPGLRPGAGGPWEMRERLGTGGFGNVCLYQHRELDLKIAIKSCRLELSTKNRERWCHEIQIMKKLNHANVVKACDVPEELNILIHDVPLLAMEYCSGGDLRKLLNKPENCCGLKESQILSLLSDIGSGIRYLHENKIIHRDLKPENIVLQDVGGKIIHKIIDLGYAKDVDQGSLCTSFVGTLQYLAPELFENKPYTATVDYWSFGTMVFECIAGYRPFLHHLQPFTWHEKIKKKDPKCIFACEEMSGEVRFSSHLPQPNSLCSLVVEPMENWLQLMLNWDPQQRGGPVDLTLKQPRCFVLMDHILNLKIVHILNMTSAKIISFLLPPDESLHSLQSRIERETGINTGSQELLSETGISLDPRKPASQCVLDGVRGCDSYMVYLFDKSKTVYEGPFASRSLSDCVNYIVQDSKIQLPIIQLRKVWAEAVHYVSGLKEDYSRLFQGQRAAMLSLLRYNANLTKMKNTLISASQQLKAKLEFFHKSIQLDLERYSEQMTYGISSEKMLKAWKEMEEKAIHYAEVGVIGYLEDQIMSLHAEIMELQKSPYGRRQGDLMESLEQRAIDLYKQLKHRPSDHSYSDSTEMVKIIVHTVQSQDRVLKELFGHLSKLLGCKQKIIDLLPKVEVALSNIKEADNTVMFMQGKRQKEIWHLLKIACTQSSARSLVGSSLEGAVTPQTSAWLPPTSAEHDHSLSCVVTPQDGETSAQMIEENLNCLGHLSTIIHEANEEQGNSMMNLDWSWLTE

Variants of: B1
Details: with ikka_human CHUK

effect of a mutation on the interaction | Variant
decreasing interaction strength | K151A
